Target: NF-κB p65 (RelA) homodimer (UniProt Q04206 Q04206:1-551)
Assay: competition; inhibition/binding similar to unsubstituted aptamer; 32P IgκB competition
Conditions: protein: NAME; chain copies: 2 (stated)
Experimental: As the substitutions of dithiophosphate were increased, binding by the [S₂]-ODN oligonucleotide increased dramatically. For example, in a standard competitive binding assay, ³²P IgκB promoter element ODN is incubated with recombinant p65 and varying amounts of XBY aptamer competitor. The relative binding ability of the unlabeled ODNs is determined by the concentration needed to effectively compete with the standard labeled ODN. XBY1 through 6 correspond to CK-14 aptamers with 1 through 6 dithiophosphate substitutions, respectively. The present inventors, according to an embodiment of this invention, developed an oligonucleotide containing six dithioate linkages on the two strands, termed XBY-6. Unlike the fully substituted [S]-ODN CK-14, the XBY-6 hybrid backbone [S₂]-ODN aptamers bound more tightly to p50/p50 (5-fold) than to the p65 homodimer.

Chain of NF-κB p65 (RelA) homodimer (Q04206 whole entry, one chain of several): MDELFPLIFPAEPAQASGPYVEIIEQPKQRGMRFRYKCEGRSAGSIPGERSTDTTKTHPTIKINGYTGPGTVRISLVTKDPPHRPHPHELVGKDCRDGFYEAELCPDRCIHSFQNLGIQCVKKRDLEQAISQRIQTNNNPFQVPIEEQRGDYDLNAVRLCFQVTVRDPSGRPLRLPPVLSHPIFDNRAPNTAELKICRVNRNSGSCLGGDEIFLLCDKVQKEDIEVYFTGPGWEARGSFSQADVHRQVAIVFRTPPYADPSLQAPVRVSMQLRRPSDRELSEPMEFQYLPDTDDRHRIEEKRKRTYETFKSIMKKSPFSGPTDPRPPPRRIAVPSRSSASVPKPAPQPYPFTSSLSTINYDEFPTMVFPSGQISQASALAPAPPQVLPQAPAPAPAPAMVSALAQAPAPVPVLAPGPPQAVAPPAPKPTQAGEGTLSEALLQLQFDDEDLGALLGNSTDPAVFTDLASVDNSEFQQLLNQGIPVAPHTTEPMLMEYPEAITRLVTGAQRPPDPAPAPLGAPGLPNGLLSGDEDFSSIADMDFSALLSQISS

B1: CK-14 with one or two dithioate linkages (XBY1, XBY2) (dsDNA)
DNA 1: CCAGGAGATTCCAC
DNA 2: GTGGAATCTCCTGG
modifications: 1 or 2 phosphorodithioates, positions not given
binding signal: ~1 fold vs unsubstituted
